{
  "source": "patent US20180282808A1",
  "about": "(ADAPTIVE BIOTECHNOLOGIES, published 2018)",
  "binders": {"B1": {"name": "eJH64_WT1C_6 (TCR, V domains shown)", "Valpha": "AQSVAQPEDQVNVAEGNPLTVKCTYSVSGNPYLFWYVQYPNRGLQFLLKYITGDNLVKGSYGFEAEFNKSQTSFHLKKPSALVSDSALYFCAVRDMRYGGATNKLIFGTGTLLAVQP", "Vbeta": "ETGVTQTPRHLVMGMTNKKSLKCEQHLGHNAMYWYKQSAKKPLELMFVYSLEERVENNSVPSRFSPECPNSSHLFLHLHTLQPEDSALYLCASSQDGLAGAASFNNEQFFGPGTRLTVL"}, "B2": {"name": "eJH30_WT1C_5 (TCR, V domains shown)", "V domain 1": "GENVEQHPSTLSVQEGDSAVIKCTYSDSASNYFPWYKQELGKGPQLIIDIRSNVGEKKDQRIAVTLNKTAKHFSLHITETQPEDSAVYFCAAGGRDDKIIFGKGTRLHILP", "V domain 2": "EPEVTQTPSHQVTQMGQEVILRCVPISNHLYFYWYRQILGQKVEFLVSFYNNEISEKSEIFDDQFSVERPDGSNFTLKIRSTKLEDSAMYFCASSERLGTMAYNSPLHFGNGTRLTVTE"}, "B3": {"name": "eJH30_WT1C_8 (TCR, V domains shown)", "V domain 1": "GQQLNQSPQSMFIQEGEDVSMNCTSSSIFNTWLWYKQEPGEGPVLLIALYKAGELTSNGRLTAQFGITRKDSFLNISASIPSDVGIYFCAGRGSQGNLIFGKGTKLSVKP", "V domain 2": "DTAVSQTPKYLVTQMGNDKSIKCEQNLGHDTMYWYKQDSKKFLKIMFSYNNKELIINETVPNRFSPKSPDKAHLNLHINSLELGDSAVYFCASSHWQETQYFGPGTRLLVLE"}},
  "key": {"[1]": {"target": "T1, WT1 (Wilms' tumor antigen-1) peptide on HLA-A*02:01 (human)", "T1 peptide": "YMLDLQPETT", "assay": "full-length, on cells"}, "[2]": {"target": "WT1 peptide (…; SEQ ID NO: 97) presented on peptide-pulsed T2 cells (UniProt P61769)", "assay": "cell-based or functional assay", "settings": "scale: nM"}, "[3]": {"target": "WT1 peptide (…; SEQ ID NO: 97) presented on peptide-pulsed T2 cells (UniProt P61769 21-119, limits assumed)", "assay": "cell-based or functional assay"}},
  "data": [
    {"binder": "B1", "values": [
      {"measurement": "EC50 of peptide", "setting": "[1]", "result": 0.7, "unit": "nM"},
      {"measurement": "EC50 of functional avidity: CD69 MFI of TCR+ cells against WT1 10mer peptide concentration pulsed on T2 cells", "setting": "[2]", "result": 0.7}
    ]},
    {"binder": "B2", "values": [
      {"measurement": "EC50 (nM) of functional avidity: CD69 MFI of TCR+ JRT3 cells against WT1-pep concentration pulsed on T2 cells", "setting": "[3]", "result": 51.9, "unit": "nM"}
    ]},
    {"binder": "B3", "values": [
      {"measurement": "EC50 (nM) of functional avidity: CD69 MFI of TCR+ JRT3 cells against WT1-pep concentration pulsed on T2 cells", "setting": "[3]", "result": 10.9, "unit": "nM"}
    ]}
  ]
}
